The assay concerns the target T1, FcγRIIa R (extracellular domain, His tag at the C terminus) (human, UniProt P12318 34-217).
T1 construct: extracellular domain; Soluble analyte in Biacore; also called FcgRIIa R type; 2aR
T1 sequence (looked up): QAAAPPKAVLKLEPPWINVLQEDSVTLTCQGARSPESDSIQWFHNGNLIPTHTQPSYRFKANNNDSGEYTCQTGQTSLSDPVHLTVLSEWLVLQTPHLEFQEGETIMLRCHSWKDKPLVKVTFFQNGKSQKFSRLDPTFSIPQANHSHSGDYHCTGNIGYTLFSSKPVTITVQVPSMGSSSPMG
As to the kind of experiment: SPR (Biacore), relative binding, control GpH7-A5/GpH7-B3/GpL16-k0 = 100. The method, then:
Analysis of interaction between objective antibody and the FcγR was carried out using Biacore T100 (GE Healthcare). HBS-EP+ (GE Healthcare) was used as the running buffer, and the measurement temperature was set to 25° C. Chips produced by immobilizing the antigen peptide by the amine coupling method to a Series S Sencor Chip CM5 (GE Healthcare), or alternatively, chips produced by allowing preliminarily biotinylated antigen peptides to interact with and immobilize onto a Series S Sensor Chip SA (certified) (GE Healthcare) were used. Antibodies of interest were captured onto an antigen peptide-immobilized chip, and allowed to interact to each FcγR diluted with running buffer. To regenerate and repeatedly use the chip, the antibodies captured on the chip were washed off by reacting 10 mM glycine-HCl, pH 1.5.
Background: Surface plasmon resonance follows binding to a sensor surface in real time, without labels.

B1: GpH7-A5/GpH7-B3 variant K326_19Q/GpL16-k0 (antibody, human IgG1, kappa)
heavy 1: not shown
heavy 2: not shown
light: DIVMTQSPLSLPVTPGEPASISCQASESLVHSNRNTYLHWYLQKPGQSPQLLIYKVSNRFSGVPDRFSGSGSGTDFTLKISRVEAEDVGVYYCSQNTHVPPTFGQGTKVEIERTVAAPSVFIFPPSDEQLKSGTASVVCLLNNFYPREAKVQWKVDNALQSGNSQESVTEQDSKDSTYSLSSTLTLSKADYEKHKVYACEVTHQGLSSPVTKSFNRGEC
notes: heterodimerized; also called He Ab
Turning to B1, the He/Con_2aR was 129 % of control.

B2: GpH7-A5/GpH7-B3 variant K334_03V/GpL16-k0 (antibody, human IgG1, kappa)
heavy 1: not shown
heavy 2: not shown
light: DIVMTQSPLSLPVTPGEPASISCQASESLVHSNRNTYLHWYLQKPGQSPQLLIYKVSNRFSGVPDRFSGSGSGTDFTLKISRVEAEDVGVYYCSQNTHVPPTFGQGTKVEIERTVAAPSVFIFPPSDEQLKSGTASVVCLLNNFYPREAKVQWKVDNALQSGNSQESVTEQDSKDSTYSLSSTLTLSKADYEKHKVYACEVTHQGLSSPVTKSFNRGEC
notes: as for B1
Regarding B2, the He/Con_2aR was 117 % of control.

B3: GpH7-A5/GpH7-B3 variant L328_06M/GpL16-k0 (antibody, human IgG1, kappa)
heavy 1: not shown
heavy 2: not shown
light: DIVMTQSPLSLPVTPGEPASISCQASESLVHSNRNTYLHWYLQKPGQSPQLLIYKVSNRFSGVPDRFSGSGSGTDFTLKISRVEAEDVGVYYCSQNTHVPPTFGQGTKVEIERTVAAPSVFIFPPSDEQLKSGTASVVCLLNNFYPREAKVQWKVDNALQSGNSQESVTEQDSKDSTYSLSSTLTLSKADYEKHKVYACEVTHQGLSSPVTKSFNRGEC
notes: as for B1
For B3, the He/Con_2aR is 115 % of control.

B4: GpH7-A5/GpH7-B3 variant L328_07I/GpL16-k0 (antibody, human IgG1, kappa)
heavy 1: not shown
heavy 2: not shown
light: DIVMTQSPLSLPVTPGEPASISCQASESLVHSNRNTYLHWYLQKPGQSPQLLIYKVSNRFSGVPDRFSGSGSGTDFTLKISRVEAEDVGVYYCSQNTHVPPTFGQGTKVEIERTVAAPSVFIFPPSDEQLKSGTASVVCLLNNFYPREAKVQWKVDNALQSGNSQESVTEQDSKDSTYSLSSTLTLSKADYEKHKVYACEVTHQGLSSPVTKSFNRGEC
notes: as for B1
As to B4, the He/Con_2aR was 124 % of control.

B5: GpH7-A5/GpH7-B3 variant K334_16H/GpL16-k0 (antibody, human IgG1, kappa)
heavy 1: not shown
heavy 2: not shown
light: DIVMTQSPLSLPVTPGEPASISCQASESLVHSNRNTYLHWYLQKPGQSPQLLIYKVSNRFSGVPDRFSGSGSGTDFTLKISRVEAEDVGVYYCSQNTHVPPTFGQGTKVEIERTVAAPSVFIFPPSDEQLKSGTASVVCLLNNFYPREAKVQWKVDNALQSGNSQESVTEQDSKDSTYSLSSTLTLSKADYEKHKVYACEVTHQGLSSPVTKSFNRGEC
notes: as for B1
B5: the He/Con_2aR is 109 % of control.

B6: GpH7-A5/GpH7-B3 variant S337_14T/GpL16-k0 (antibody, human IgG1, kappa)
heavy 1: not shown
heavy 2: not shown
light: DIVMTQSPLSLPVTPGEPASISCQASESLVHSNRNTYLHWYLQKPGQSPQLLIYKVSNRFSGVPDRFSGSGSGTDFTLKISRVEAEDVGVYYCSQNTHVPPTFGQGTKVEIERTVAAPSVFIFPPSDEQLKSGTASVVCLLNNFYPREAKVQWKVDNALQSGNSQESVTEQDSKDSTYSLSSTLTLSKADYEKHKVYACEVTHQGLSSPVTKSFNRGEC
notes: as for B1
Consider B6, for which the He/Con_2aR was 110 % of control.

B7: GpH7-A5/GpH7-B3 variant L328_04F/GpL16-k0 (antibody, human IgG1, kappa)
heavy 1: not shown
heavy 2: not shown
light: DIVMTQSPLSLPVTPGEPASISCQASESLVHSNRNTYLHWYLQKPGQSPQLLIYKVSNRFSGVPDRFSGSGSGTDFTLKISRVEAEDVGVYYCSQNTHVPPTFGQGTKVEIERTVAAPSVFIFPPSDEQLKSGTASVVCLLNNFYPREAKVQWKVDNALQSGNSQESVTEQDSKDSTYSLSSTLTLSKADYEKHKVYACEVTHQGLSSPVTKSFNRGEC
notes: as for B1
Take B7: the He/Con_2aR is 138 % of control.

B8: GpH7-A5/GpH7-B3 variant K334_18N/GpL16-k0 (antibody, human IgG1, kappa)
heavy 1: not shown
heavy 2: not shown
light: DIVMTQSPLSLPVTPGEPASISCQASESLVHSNRNTYLHWYLQKPGQSPQLLIYKVSNRFSGVPDRFSGSGSGTDFTLKISRVEAEDVGVYYCSQNTHVPPTFGQGTKVEIERTVAAPSVFIFPPSDEQLKSGTASVVCLLNNFYPREAKVQWKVDNALQSGNSQESVTEQDSKDSTYSLSSTLTLSKADYEKHKVYACEVTHQGLSSPVTKSFNRGEC
notes: as for B1
Regarding B8, the He/Con_2aR is 112 % of control.

B9: GpH7-A5/GpH7-B3 variant K334_14T/GpL16-k0 (antibody, human IgG1, kappa)
heavy 1: not shown
heavy 2: not shown
light: DIVMTQSPLSLPVTPGEPASISCQASESLVHSNRNTYLHWYLQKPGQSPQLLIYKVSNRFSGVPDRFSGSGSGTDFTLKISRVEAEDVGVYYCSQNTHVPPTFGQGTKVEIERTVAAPSVFIFPPSDEQLKSGTASVVCLLNNFYPREAKVQWKVDNALQSGNSQESVTEQDSKDSTYSLSSTLTLSKADYEKHKVYACEVTHQGLSSPVTKSFNRGEC
notes: as for B1
As to B9, the He/Con_2aR was 112 % of control.

B10: GpH7-A5/GpH7-B3 variant S239_01G/GpL16-k0 (antibody, human IgG1, kappa)
heavy 1: not shown
heavy 2: not shown
light: DIVMTQSPLSLPVTPGEPASISCQASESLVHSNRNTYLHWYLQKPGQSPQLLIYKVSNRFSGVPDRFSGSGSGTDFTLKISRVEAEDVGVYYCSQNTHVPPTFGQGTKVEIERTVAAPSVFIFPPSDEQLKSGTASVVCLLNNFYPREAKVQWKVDNALQSGNSQESVTEQDSKDSTYSLSSTLTLSKADYEKHKVYACEVTHQGLSSPVTKSFNRGEC
notes: as for B1
Turning to B10, the He/Con_2aR was 128 % of control.

B11: GpH7-A5/GpH7-B3 variant P271_01G/GpL16-k0 (antibody, human IgG1, kappa)
heavy 1: not shown
heavy 2: not shown
light: DIVMTQSPLSLPVTPGEPASISCQASESLVHSNRNTYLHWYLQKPGQSPQLLIYKVSNRFSGVPDRFSGSGSGTDFTLKISRVEAEDVGVYYCSQNTHVPPTFGQGTKVEIERTVAAPSVFIFPPSDEQLKSGTASVVCLLNNFYPREAKVQWKVDNALQSGNSQESVTEQDSKDSTYSLSSTLTLSKADYEKHKVYACEVTHQGLSSPVTKSFNRGEC
notes: as for B1
Consider B11, for which the He/Con_2aR is 144 % of control.

B12: GpH7-A5/GpH7-B3 variant S267_02A/GpL16-k0 (antibody, human IgG1, kappa)
heavy 1: not shown
heavy 2: not shown
light: DIVMTQSPLSLPVTPGEPASISCQASESLVHSNRNTYLHWYLQKPGQSPQLLIYKVSNRFSGVPDRFSGSGSGTDFTLKISRVEAEDVGVYYCSQNTHVPPTFGQGTKVEIERTVAAPSVFIFPPSDEQLKSGTASVVCLLNNFYPREAKVQWKVDNALQSGNSQESVTEQDSKDSTYSLSSTLTLSKADYEKHKVYACEVTHQGLSSPVTKSFNRGEC
notes: as for B1
Turning to B12, the He/Con_2aR was 155 % of control.

B13: GpH7-A5/GpH7-B3 variant K334_15Y/GpL16-k0 (antibody, human IgG1, kappa)
heavy 1: not shown
heavy 2: not shown
light: DIVMTQSPLSLPVTPGEPASISCQASESLVHSNRNTYLHWYLQKPGQSPQLLIYKVSNRFSGVPDRFSGSGSGTDFTLKISRVEAEDVGVYYCSQNTHVPPTFGQGTKVEIERTVAAPSVFIFPPSDEQLKSGTASVVCLLNNFYPREAKVQWKVDNALQSGNSQESVTEQDSKDSTYSLSSTLTLSKADYEKHKVYACEVTHQGLSSPVTKSFNRGEC
notes: as for B1
For the molecule B13, the He/Con_2aR is 108 % of control.

B14: GpH7-A5/GpH7-B3 variant K334_07I/GpL16-k0 (antibody, human IgG1, kappa)
heavy 1: not shown
heavy 2: not shown
light: DIVMTQSPLSLPVTPGEPASISCQASESLVHSNRNTYLHWYLQKPGQSPQLLIYKVSNRFSGVPDRFSGSGSGTDFTLKISRVEAEDVGVYYCSQNTHVPPTFGQGTKVEIERTVAAPSVFIFPPSDEQLKSGTASVVCLLNNFYPREAKVQWKVDNALQSGNSQESVTEQDSKDSTYSLSSTLTLSKADYEKHKVYACEVTHQGLSSPVTKSFNRGEC
notes: as for B1
With B14, the He/Con_2aR was 114 % of control.

B15: GpH7-A5/GpH7-B3 variant S267_07I/GpL16-k0 (antibody, human IgG1, kappa)
heavy 1: not shown
heavy 2: not shown
light: DIVMTQSPLSLPVTPGEPASISCQASESLVHSNRNTYLHWYLQKPGQSPQLLIYKVSNRFSGVPDRFSGSGSGTDFTLKISRVEAEDVGVYYCSQNTHVPPTFGQGTKVEIERTVAAPSVFIFPPSDEQLKSGTASVVCLLNNFYPREAKVQWKVDNALQSGNSQESVTEQDSKDSTYSLSSTLTLSKADYEKHKVYACEVTHQGLSSPVTKSFNRGEC
notes: as for B1
Consider B15, for which the He/Con_2aR is 111 % of control.

B16: GpH7-A5/GpH7-B3 variant L328_15Y/GpL16-k0 (antibody, human IgG1, kappa)
heavy 1: not shown
heavy 2: not shown
light: DIVMTQSPLSLPVTPGEPASISCQASESLVHSNRNTYLHWYLQKPGQSPQLLIYKVSNRFSGVPDRFSGSGSGTDFTLKISRVEAEDVGVYYCSQNTHVPPTFGQGTKVEIERTVAAPSVFIFPPSDEQLKSGTASVVCLLNNFYPREAKVQWKVDNALQSGNSQESVTEQDSKDSTYSLSSTLTLSKADYEKHKVYACEVTHQGLSSPVTKSFNRGEC
notes: as for B1
With B16, the He/Con_2aR is 136 % of control.

B17: GpH7-A5/GpH7-B3 variant S239_09D/GpL16-k0 (antibody, human IgG1, kappa)
heavy 1: not shown
heavy 2: not shown
light: DIVMTQSPLSLPVTPGEPASISCQASESLVHSNRNTYLHWYLQKPGQSPQLLIYKVSNRFSGVPDRFSGSGSGTDFTLKISRVEAEDVGVYYCSQNTHVPPTFGQGTKVEIERTVAAPSVFIFPPSDEQLKSGTASVVCLLNNFYPREAKVQWKVDNALQSGNSQESVTEQDSKDSTYSLSSTLTLSKADYEKHKVYACEVTHQGLSSPVTKSFNRGEC
notes: as for B1
Take B17: the He/Con_2aR is 137 % of control.

B18: GpH7-A5/GpH7-B3 variant L328_03V/GpL16-k0 (antibody, human IgG1, kappa)
heavy 1: not shown
heavy 2: not shown
light: DIVMTQSPLSLPVTPGEPASISCQASESLVHSNRNTYLHWYLQKPGQSPQLLIYKVSNRFSGVPDRFSGSGSGTDFTLKISRVEAEDVGVYYCSQNTHVPPTFGQGTKVEIERTVAAPSVFIFPPSDEQLKSGTASVVCLLNNFYPREAKVQWKVDNALQSGNSQESVTEQDSKDSTYSLSSTLTLSKADYEKHKVYACEVTHQGLSSPVTKSFNRGEC
notes: as for B1
Turning to B18, the He/Con_2aR was 116 % of control.

B19: GpH7-A5/GpH7-B3 variant P238_08L/GpL16-k0 (antibody, human IgG1, kappa)
heavy 1: not shown
heavy 2: not shown
light: DIVMTQSPLSLPVTPGEPASISCQASESLVHSNRNTYLHWYLQKPGQSPQLLIYKVSNRFSGVPDRFSGSGSGTDFTLKISRVEAEDVGVYYCSQNTHVPPTFGQGTKVEIERTVAAPSVFIFPPSDEQLKSGTASVVCLLNNFYPREAKVQWKVDNALQSGNSQESVTEQDSKDSTYSLSSTLTLSKADYEKHKVYACEVTHQGLSSPVTKSFNRGEC
notes: as for B1
Consider B19, for which the He/Con_2aR was 140 % of control.

B20: GpH7-A5/GpH7-B3 variant S267_01G/GpL16-k0 (antibody, human IgG1, kappa)
heavy 1: not shown
heavy 2: not shown
light: DIVMTQSPLSLPVTPGEPASISCQASESLVHSNRNTYLHWYLQKPGQSPQLLIYKVSNRFSGVPDRFSGSGSGTDFTLKISRVEAEDVGVYYCSQNTHVPPTFGQGTKVEIERTVAAPSVFIFPPSDEQLKSGTASVVCLLNNFYPREAKVQWKVDNALQSGNSQESVTEQDSKDSTYSLSSTLTLSKADYEKHKVYACEVTHQGLSSPVTKSFNRGEC
notes: as for B1
Turning to B20, the He/Con_2aR is 113 % of control.

The record behind these values is patent publication US20150344570A1 (published 2015).
